Source: patent publication US20240425575A1

Tests used:
[1] = molecular target: human ANG2 protein (623-AN-025/CF, R&D) (human) (UniProt O15123); test: cell-based or functional assay
[2] = molecular target: human ANG2 protein (623-AN-025/CF, R&D) (human) (UniProt O15123); test: flow cytometry, inhibition of human ANG2 (10 µg/mL) binding to HUVEC cells

Sequence of human ANG2 protein (623-AN-025/CF, R&D) (human) (O15123 19-496 limits assumed): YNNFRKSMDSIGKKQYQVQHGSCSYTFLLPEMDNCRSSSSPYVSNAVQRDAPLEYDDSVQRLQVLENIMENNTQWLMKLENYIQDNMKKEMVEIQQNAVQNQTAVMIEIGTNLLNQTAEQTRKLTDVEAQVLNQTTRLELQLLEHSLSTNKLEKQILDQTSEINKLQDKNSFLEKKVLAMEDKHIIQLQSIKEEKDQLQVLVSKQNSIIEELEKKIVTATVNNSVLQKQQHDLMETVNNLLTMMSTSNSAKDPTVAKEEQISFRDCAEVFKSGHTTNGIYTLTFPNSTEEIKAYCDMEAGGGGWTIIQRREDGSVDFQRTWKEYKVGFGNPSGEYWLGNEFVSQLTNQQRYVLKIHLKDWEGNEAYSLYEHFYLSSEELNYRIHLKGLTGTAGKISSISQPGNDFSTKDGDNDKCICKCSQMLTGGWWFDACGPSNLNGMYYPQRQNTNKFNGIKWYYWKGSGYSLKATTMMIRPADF

- IC50 of inhibition of AKT phosphorylation of human ANG2-dependent HUVEC cells [1]: 27.3 nM
- IC50 [2]: 53.9 nM
Substance: RG7716 (ATAD00534, Atagenix) (bispecific antibody)
